{
  "source": "paper PMC13580404",
  "about": "(Molecular cell, 2026)",
  "test_in_all_cases": "ITC; RPN13 Pru in the cell (15.6, 20.57 or 16 μM), RPN2 (940–953) in the syringe; 25°C; 20 mM sodium phosphate, 50 mM NaCl, pH 6.0, with 10 mM βME (reducing) or without (non-reducing); one-site fit",
  "details_in_all_cases": "both partners purified",
  "key": {"[1]": {"biological_target": "T1, RPN13 Pru (1–150), reduced (UniProt Q16186 1-150)", "T1 construct": "also called RPN13 (1–150); redu RPN13^Pru; source: E. coli BL21(DE3) pLysS, purified (Talon resin, PreScission cleavage, Superdex 75); not shown: His6, N-terminal, cleaved", "T1 sequence (Q16186 1-150)": "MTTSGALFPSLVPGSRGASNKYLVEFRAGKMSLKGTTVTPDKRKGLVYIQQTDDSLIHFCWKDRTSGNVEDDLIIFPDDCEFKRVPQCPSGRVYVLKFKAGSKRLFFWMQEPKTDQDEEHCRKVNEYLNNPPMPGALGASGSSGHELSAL"}, "[2]": {"biological_target": "T2, oxidized RPN13 Pru (1–150) (UniProt Q16186 1-150, oxidized with 0.05% H2O2; the residues are not told)", "T2 construct": "RPN13 Pru domain, residues 1-150; also called oxi RPN13^Pru; oxi-RPN13^Pru; source: E. coli BL21(DE3) pLysS, purified; oxidized with 0.05% H2O2 on ice for 10 min; not shown: His6, N-terminal, cleaved", "T2 sequence (Q16186 1-150)": "as above"}, "[3]": {"biological_target": "T3, oxidized RPN13 Pru (1–150) after incubation with TXNL1^Trx (UniProt Q16186 1-150, oxidized with 0.05% H2O2, then restored by a 3-fold molar excess of TXNL1 Trx; the residues are not told)", "T3 construct": "RPN13 Pru domain, residues 1-150; source: E. coli BL21(DE3) pLysS, purified; not shown: His6, N-terminal, cleaved", "T3 sequence (Q16186 1-150)": "as above"}},
  "data": [
    {"binder": "QEPEPPEPFEYIDD (peptide, UniProt Q99460 940-953, looked up, Eluted from the resin as GST-RPN2 (940–953); also called RPN2 peptide; GST-RPN2 (940–953); source: E. coli BL21(DE3) pLysS, purified (glutathione resin, eluted with reduced glutathione, Superdex 75))", "note": "[RPN2 (940–953)]", "values": [
      {"measurement": "Kd", "setting": "[1]", "value": "12.4 ± 5.29", "unit": "nM"},
      {"measurement": "Kd", "setting": "[2]", "value": "40 ± 15.3", "unit": "nM"},
      {"measurement": "Kd", "setting": "[3]", "value": "18.9 ± 5.7", "unit": "nM"}
    ]}
  ]
}
